Here are results for 5 molecules from patent publication US20210188980A1 (SHANGHAI EPIMAB BIOTHERAPEUTICS, published 2021).

As a reminder, the EC50 is the concentration at which the effect is half-maximal. As a reminder, the IC50 is the concentration at which inhibition is half-maximal. For orientation: koff means the first-order rate constant of dissociation.

The target in experiment [1] is T1, human LAG-3 expressed on cells (human, UniProt P18627 23-525).
T1 sequence (looked up): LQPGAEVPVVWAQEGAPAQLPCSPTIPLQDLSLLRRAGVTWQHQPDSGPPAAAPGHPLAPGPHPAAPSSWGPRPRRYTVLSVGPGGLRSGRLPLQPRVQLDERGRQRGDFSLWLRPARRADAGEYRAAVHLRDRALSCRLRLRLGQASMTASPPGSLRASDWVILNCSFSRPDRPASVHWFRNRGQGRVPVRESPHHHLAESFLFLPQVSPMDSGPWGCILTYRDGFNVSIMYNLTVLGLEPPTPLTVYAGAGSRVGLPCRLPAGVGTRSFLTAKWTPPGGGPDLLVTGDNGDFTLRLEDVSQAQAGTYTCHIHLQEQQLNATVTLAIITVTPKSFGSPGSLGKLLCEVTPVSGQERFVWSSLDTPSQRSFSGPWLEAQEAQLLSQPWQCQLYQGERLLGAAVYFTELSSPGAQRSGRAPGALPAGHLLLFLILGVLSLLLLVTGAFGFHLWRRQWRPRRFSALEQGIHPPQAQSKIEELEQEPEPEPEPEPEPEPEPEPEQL
Briefly: cell-based or functional assay.

For experiment [2], the target named is T2, human LAG-3 ECD/Fc fusion protein (human).
T2 construct: also called HuLAG-3 ECD/Fc
The experiment is described as follows: ELISA, coated huLAG-3 ECD/Fc. As for the experimental part:
The supernatants of hybridoma clones were primarily screened by ELISA. Briefly, 50 μl/well of […] human LAG-3 ECD/Fc in NaHCO₃ were directly coated in each well of 96-well plate overnight. Plates were washed 3 times with 1×PBST, 300 μl per well. After blocking with 1% BSA in PBST at 250 μl per well and incubating at room temperature for 1 hour, the hybridoma supernatants were added at 50 μl per well and incubated at 37° C. for 1 hour. After washing, an HRP-linked goat anti-mouse IgG Fc secondary antibody (Cat. No. A0168, Sigma) was added at 100 μl/well and the plates were incubated at room temperature for 1 hour. TMB reagent (InnoReagents) was used to detect and develop the ELISA signal at 100 μl/well for 15 minutes, the reaction was stopped with 1 Normal HCL. The plates were read with a plate reader (SpectraMax® M5e, Molecular Devices, USA) at a wavelength of 450 nm. The ELISA-positive antibody producer clones were further verified by FACS analysis using methods similar to Example 1.4, above, except that stable HEK 293F cell lines expressing either human LAG-3 or cynomolgus LAG-3 were used. Hybridomas producing LAG-3 binding activity were selected and further characterized in a receptor blocking assay (RBA).
A binding ELISA was performed in the same way as described in Example 7.2 above. Each purified antibody was 10-fold serially diluted. After blocking of a 96-well assay plate with wells containing immobilized LAG-3 ECD/Fc fusion protein targets, the purified antibody samples with diluted concentrations were added to wells of the assay plate. The HRP-linked anti-mouse IgG antibody (A0168, Sigma) and TMB reagent were used to detect and develop the ELISA signal, which were read on a SpectraMax M5e plate reader at wavelength of 450 nm. Curves were fitted using GraphPad software, and EC50 values were calculated. Similarly, a RBA was also performed as described in Example 7.3 with titrated, purified antibodies, and maximum inhibition percentages and IC50 values were determined.

Experiment [3] concerns the target T1, human LAG-3 expressed on cells. The experiment is described as follows: FACS, HEK 293F huLAG-3 cells. As for the experimental part: (§1) FAGS analysis was performed using methods similar to Example 1.4, above, except that stable HEK 293F cell lines expressing either human LAG-3 cynomolgus LAG-3 were used. LAG-3 expressing cells were charged at 2×10⁴ cell per well into 96-well assay round-bottomed assay plates (Cat. No. 3799; Corning) and stained with purified anti-LAG-3 antibodies. LAG-3 antibodies were detected with AlexaFluor® Donkey anti-Mouse Ig (H+L) Highly Cross-Adsorbed Secondary Antibody (Cat. No. A21202; Invitrogen), and cell fluorescence was monitored using a flow cytometer. The data were processed by GraphPad software, and EC50 values were calculated.

Experiment [4] concerns the target T3, cynomolgus LAG-3 expressed on HEK 293F cells (cynomolgus).
T3 construct: whole, on cells
The experiment is described as follows: FACS, HEK 293F cynoLAG-3 cells. On the procedure:
as §1
(In general: In flow cytometry, cells or beads pass a laser one at a time.)

The target of experiment [5] is T2, human LAG-3 ECD/Fc fusion protein. The experiment is described as follows: FACS RBA, huLAG-3 ECD/Fc on Raji; competitor MHC Class II. On the procedure: Supernatants displaying LAG-3 specific activity were tested for the ability to block LAG-3 receptor binding to MHC Class II. Raji human B cell lymphoblasts express high levels of MCH Class II and were used as binding targets for LAG-3 ECD/Fc proteins described above. Briefly, Raji cells were harvested and resuspend in FACS buffer and plated in 96-well plates (2×10⁵ cells/well). Anti-LAG-3 hybridoma supernatants were mixed with soluble LAG-3 ECD/Fc and the mixture was added to wells at a final volume of 100 μl/well. After adding the mixture to cells, the plates were incubated at room temperature for 30 minutes. After washing twice with PBS, the cells were incubated with anti-human IgG Alexa Fluor® 488 secondary antibody at 4° C. for 1 hour, washed twice with PBS, then fluorescence was measured on a flow cytometer.
Purified anti-LAG-3 antibodies also were tested in a RBA in the same manner as described in Example 7.3. Antibodies were also tested in an antigen-specific T cell activation assay, as follows: A huLAG-3 expressing murine T hybridoma cell line was generated to order by ChemPartner (Shanghai, CN). Mouse splenocytes from the same strain of mice were used as effector cells. The hybridoma expressing the huLAG-3 receptor protein is capable of binding to MHC Class II-positive mouse splenocytes, with inhibitory effect via engagement of Class II. The assay tests for anti-LAG-3 antibody-mediated reversal of the inhibitory effect, as measured by increased production of IL-2. Mouse spleenocytes were harvested from 6-8 week-old female C57BL/6 mice, red blood cells were lysed using Red Blood Cell Lysis Buffer (Sigma-Aldrich; R7757) according to the maker's instructions. Next, 50 μl T hybridoma-huLAG-3 cells (2×10⁶ cells/ml) were seeded in each well of a 96-well culture plate, and then a series of anti-LAG-3 monoclonal antibodies in solution at 50 μl/well were added and incubated at 37° C. for 30 min. Mouse splenocytes (4×10⁶ cells/ml) and the antigen (20 μg/ml) were mixed and incubated at 37° C. for 30 min. The mixture (100 μl/well) was added into each well that was already seeded with T hybridoma-huLAG-3 cells and anti-LAG-3 mAbs. The mixture of antibodies, T hybridoma-huLAG-3 cells, mouse splenocytes, and the antigen was cultured for 3 days.

The target of experiment [6] is T4, recombinant human LAG-3-his protein (Novoprotein) (human, UniProt P18627 23-450).
T4 construct: Bought; also called huLAG-3; not shown: His tag
T4 sequence (looked up): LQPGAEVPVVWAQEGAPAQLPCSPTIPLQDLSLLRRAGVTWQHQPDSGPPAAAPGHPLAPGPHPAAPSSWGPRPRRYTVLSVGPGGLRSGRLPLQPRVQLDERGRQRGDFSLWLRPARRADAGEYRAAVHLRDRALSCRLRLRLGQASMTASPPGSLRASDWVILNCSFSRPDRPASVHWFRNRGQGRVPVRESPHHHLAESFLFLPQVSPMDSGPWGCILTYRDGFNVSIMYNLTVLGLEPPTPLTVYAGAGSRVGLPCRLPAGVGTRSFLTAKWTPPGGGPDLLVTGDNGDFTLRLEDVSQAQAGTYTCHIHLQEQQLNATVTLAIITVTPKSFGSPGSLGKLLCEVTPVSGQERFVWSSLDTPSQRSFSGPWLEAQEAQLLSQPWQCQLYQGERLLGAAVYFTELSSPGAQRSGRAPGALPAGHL
Briefly: BLI Octet, Ab on AHC sensor, huLAG-3-his; test group 4. As for the experimental part:
All 18 humanized antibodies (Table 34) and a chimeric antibody having the parental murine VH and VL domains (mAb747c) were ranked by dissociation rate constant (koff). Briefly, antibodies were characterized for affinities and binding kinetics by Octet®RED96 biolayer interferometry (Pall ForteBio LLC). Antibodies were captured by Anti-hIgG Fc Capture (AHC) Biosensors (Pall) at a concentration of 100 nM for 30 seconds. Sensors were then dipped into running buffer (1× pH7.2 PBS, 0.05% Tween 20, 0.1% BSA) for 60 seconds to check baseline. Binding was measured by dipping sensors into a single concentration of recombinant human LAG-3-his protein (Novoprotein). Dissociation was followed by dipping sensors into running buffer for 1200 seconds. The association and dissociation curves were fitted to a 1:1 Langmuir binding model using FortéBio Data Analysis software (Pall). In each test group, the off-rates of antibodies were able to be compared with that of mAb747c. The off-rate ratios were calculated by the off-rate of antibody to that of mAb747c of its group and were compared all together. The lower the ratio was, the higher was the affinity of the antibody.

B1: mAb748 (antibody, V domains shown)
VH: EVQMQQSGAELVRPGASVKLSCTVSGFNIKDDYMHWVKQRPEQGLEWIGWIDPENGDTEYASKFQGKATITADTSSNTAYLQLNSLTSEDTAVYYCTYFDYWGQGTTLTVSS
VL: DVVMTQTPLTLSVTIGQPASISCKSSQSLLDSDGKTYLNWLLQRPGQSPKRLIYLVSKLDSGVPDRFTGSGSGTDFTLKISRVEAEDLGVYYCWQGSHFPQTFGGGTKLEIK
notes: murine hybridoma anti-LAG-3 mAb
As to B1, in experiment [1], the “Max IL-2” value was found to be 539 pg/mL. This molecule also returned a concentration for a half-maximal effect (EC50) in experiment [2] of 0.24 nM. In addition, in experiment [3], the EC50 is 13.4 nM and the Max-MFI was found to be 73.1 MFI. In addition, in experiment [4], the response was half-maximal at 79.6 nM (EC50) and the Max-MFI was 31.9 MFI. In addition, in experiment [5], the IC50 is 4.8 nM and the “Max. Inhib. (%)” value was 96.1%.

B2: HumAb747-59 (antibody, human IgG1, V domains shown)
VH: EVQLVQSGAEVKKPGATVKLSCTASDFNIKDDYMHWVKQRPEQGLEWIGWIVPENGNTEYASKFQGRATITADTSTNTAYLELSSLRSEDTAVYYCTVYGDYWGQGTTVTVSS
VL: DIQMTQSPSSLSASVGDRVTITCRASQEISGYLSWLQQKPGGAIKRLIYAASTLDSGVPSRFSGSRSGSDYTLTISSLQPEDFADYYCLQYASYPLTFGQGTKLELK
notes: humanized mAb747; human IgG1/kappa constant domains
As for B2, in experiment [6], the koff stood at 0.0012 s⁻¹ and the “off-rate ratio to that of mAb747c” value amounted to 226%.

B3: HumAb747-60 (antibody, human IgG1, V domains shown)
VH: EVQLVQSGAEVKKPGATVKLSCTASDFNIKDDYMHWVKQRPEQGLDWIGWIVPENGNTEYASKFQGKATITADTSTNTAYLELSSLRSEDTAVYYCTVYGDYWGQGTTVTVSS
VL: DIQMTQSPSSLSASVGDRVTITCRASQEISGYLSWLQQKPGGAIKRLIYAASTLDSGVPSRFSGSRSGSDYTLTISSLQPEDFADYYCLQYASYPLTFGQGTKLELK
notes: as for B2
With B3, in experiment [6], the koff was 0.00081 s⁻¹ and the “off-rate ratio to that of mAb747c” value amounted to 153%.

B4: mAb742 (antibody, V domains shown)
VH: QGQLQQSGAELVRPGASVTLSCKASGYTFNDYEMHWVKQTPVHGLEWIGAIDPETGGTAYNQKFKGKAILTADKSSSTAYMELRSLTSEDSAVYYCIRWGSTVFPYWGQGTLVTVS
VL: DGVLTQTPLSLPVNIGDQASISCKSTKSLLNSDGFTYLDWYLQKPGQSPQLLIYLVSNRFSGVPDRFSGSGSGTDFTLKISRVEAEDLGVYYCFQSNYLPWTFGGGTKLEIK
notes: as for B1
In the case of B4, the “Max IL-2” value in experiment [1] worked out at 733 pg/mL. For the same molecule, the response in experiment [2] was half-maximal at 0.22 nM (EC50). In experiment [3], this molecule displayed an EC50 of 2.8 nM and a Max-MFI of 103 MFI. In experiment [4], this molecule returned an EC50 of 56.4 nM and a Max-MFI of 48.5 MFI. Besides, in experiment [5], the IC50 amounted to 3.84 nM and the “Max. Inhib. (%)” value was 96.5%.

B5: mAb744 (antibody, V domains shown)
VH: QVQLQQSGAELVRPGTSVTLSCKASGYTFTDYEMHWMKQTPVHGLEWIGAIDPATGGTAYNQKFKGKAILTADKSSSTAYMDFRSLTSEDSAVYYCIRWGTTVFPYWGQGTLVTVS
VL: DVVLTQTPLSLPVNIGDQASISCKSTKSLLNSDGFTYLDWYLQKPGQSPQLLIYLVSNRFSGVPDRFSGSGSGTDFTLKISRVEAEDLGVYYCFQSNYLPWTFGGGTKLEIK
notes: murine hybridoma anti-LAG-3 mAb; also called rnAb744
On to B5, for which, in experiment [1], the “Max IL-2” value was found to be 612 pg/mL. Moreover, it took 0.19 nM to reach a half-maximal effect in experiment [2] (EC50). In experiment [3], the midpoint of the response, the EC50, lay at 9.5 nM and the Max-MFI came to 135 MFI. Also, in experiment [4], the EC50 was found to be 67 nM and the Max-MFI worked out at 37.8 MFI. In experiment [5], the IC50 is 10.8 nM and the “Max. Inhib. (%)” value turned out to be 96.5%.
